Measured values reported in patent US20120129768A1.
Non-standard residues stand in square brackets, D forms with d. No end group written: not given here.

Biological target: Glucagon-like peptide-1 receptor (GLP1R)
Assay: cell-based or functional assay

B1: HS-20003 (peptide)
peptide: H[dA]EGTFTSDVSSYLEEEAAKEFIAWLVRGGPSSGAPPPSK
modifications: not fully specified (residue 40); also: palmitoyl on alpha-amino of C-terminal Lys, chain built on its epsilon amino
  EC50 (nM), cAMP-response-element luciferase reporter in HEK293 cells with GLP1R: 0.000719 nM
  Maximum reaction rate (%): 87.9%
